Measurements from publication PMC8164019 (Methods in molecular biology (Clifton, N.J.), 2020).

Molecular target: the molecule itself
Experiment: negative-stain EM

B1: MxB after cleavage of the MBP tag by HRV-3C protease (natural protein, human, UniProt P20592 1-715, looked up)
chain: MSKAHKPWPYRRRSQFSSRKYLKKEMNSFQQQPPPFGTVPPQMMFPPNWQGAEKDAAFLAKDFNFLTLNNQPPPGNRSQPRAMGPENNLYSQYEQKVRPCIDLIDSLRALGVEQDLALPAIAVIGDQSSGKSSVLEALSGVALPRGSGIVTRCPLVLKLKKQPCEAWAGRISYRNTELELQDPGQVEKEIHKAQNVMAGNGRGISHELISLEITSPEVPDLTIIDLPGITRVAVDNQPRDIGLQIKALIKKYIQRQQTINLVVVPCNVDIATTEALSMAHEVDPEGDRTIGILTKPDLMDRGTEKSVMNVVRNLTYPLKKGYMIVKCRGQQEITNRLSLAEATKKEITFFQTHPYFRVLLEEGSATVPRLAERLTTELIMHIQKSLPLLEGQIRESHQKATEELRRCGADIPSQEADKMFFLIEKIKMFNQDIEKLVEGEEVVRENETRLYNKIREDFKNWVGILATNTQKVKNIIHEEVEKYEKQYRGKELLGFVNYKTFEIIVHQYIQQLVEPALSMLQKAMEIIQQAFINVAKKHFGEFFNLNQTVQSTIEDIKVKHTAKAENMIQLQFRMEQMVFCQDQIYSVVLKKVREEIFNPLGTPSQNMKLNSHFPSNESSVSSFTEIGIHLNAYFLETSKRLANQIPFIIQYFMLRENGDSLQKAMMQILQEKNRYSWLLQEQSETATKRRILKERIYRLTQARHALCQFSSKEIH
- binding result: binds
